These results are taken from paper doi:10.1101/2025.11.21.689678 (bioRxiv, 2025).

For this test, the target named is MBP-MAGEA6 (human (cDNA from A549 cells), UniProt P43360 1-314). The experiment in a line: pull-down.
MBP-MAGEA6, sequence (P43360 whole entry): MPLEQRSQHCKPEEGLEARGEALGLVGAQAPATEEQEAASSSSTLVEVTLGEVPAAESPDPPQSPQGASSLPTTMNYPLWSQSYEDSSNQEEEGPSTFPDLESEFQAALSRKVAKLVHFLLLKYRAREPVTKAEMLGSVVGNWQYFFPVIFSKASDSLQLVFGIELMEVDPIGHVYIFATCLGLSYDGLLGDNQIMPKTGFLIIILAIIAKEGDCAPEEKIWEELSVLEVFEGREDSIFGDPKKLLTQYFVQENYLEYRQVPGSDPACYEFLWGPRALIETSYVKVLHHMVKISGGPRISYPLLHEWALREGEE

B1: His-Flag-ALKBH2 (natural protein, human, UniProt Q6NS38 1-261, looked up)
chain: MDRFLVKGAQGGLLRKQEEQEPTGEEPAVLGGDKESTRKRPRREAPGNGGHSAGPSWRHIRAEGLDCSYTVLFGKAEADEIFQELEKEVEYFTGALARVQVFGKWHSVPRKQATYGDAGLTYTFSGLTLSPKPWIPVLERIRDHVSGVTGQTFNFVLINRYKDGCDHIGEHRDDERELAPGSPIASVSFGACRDFVFRHKDSRGKSPSRRVAVVRLPLAHGSLLMMNHPTNTHWYHSLPVRKKVLAPRVNLTFRKILLTKK
Turning to B1, the binding result is given as “binds”.
